Reference: the DeepSol protein solubility set

test: soluble on expression in E. coli; label from the status in PepcDB or PDB records

Row | Sequence | soluble on expression in E. coli
1 | MSLKIDAVDLFYLSMPEVTDAADGSQDALLVRVAAGGHIGWGECEAAPLPSIAAFVCPKSHGVCRPVSDSVLGQRLDGPDDIARIAALVGYNSMDLLQAPHMLSGIEMALWDLLGRRLSAPAWALLGYSASHGKRPYASLLFGDTPQETLERARAARRDGFAAVKFGWGPIGRGTVAADADQIMAAREGLGPDGDLMVDVGQIFGEDVEAAAARLPTLDAAGVLWLEEPFDAGALAAHAALAGRGARVRIAGGEAAHNFHMAQHLMDYGRIGFIQIDCGRIGGLGPAKRVADAAQARGITYVNHTFTSHLALSASLQPFAGLEADRICEYPAAPQQLALDITGDHIRPDAEGLIRAPEAPGLGLQVAASALRRYLVETEIRIGGQLIYRTPQLEGHHHHHH | soluble
2 | MGSDKIHHHHHHMRNEYFFRVAGLTFSVILPGGLDAETLLPSFRPFRCGECPEGERIFRLLADTRPFADDGKRAELLDESSNDMGHVCLLRIPGGYRTEISYGPMDGGAHLMTVDTAFDDATAFLRVEDPSMGEVLSSMLRILYAQAALGRDAVSVHASCVSLKGRGYLFLGKSGTGKSTHSRQWLEAFPDCRLLNDDNPVLRIEDGMVSVYGTPWSGKTPCYRNERRPVAGIVRLQQSGTNRFTPLEGPEAFAALLPSCSAIRQDIRLHDELCRILIRVTEQVPVGRLECLPDREAAWLCFESLYVRDAKAREVRDGLPENGGL | not soluble
3 | NIQYEERVSVQADLGSQTLHVRGLIDSGNQLYDPLTKTPVMIIYIDKLEPIFGTAETMIIRNTDPLEAIEQLDDSFRFLDKMRLIPYRGVGQQNQFLLCVKPDHVTIMTKEEMISADKCLIGISTTKLSADGEFDAIIHPKMLSGKAVKH | not soluble
4 | MSLSLDFSDNTFQPLAARMRPENLAQYIGQQHLLAAGKPLPRAIEAGHLHSMILWGPPGTGKTTLAEVIARYANADVERISAVTSGVKEIREAIERARQNRNAGRRTILFVDEVHRFNKSQQDAFLPHIEDGTITFIGATTENPSFELNSALLSRARVYLLKSLSTEDIEQVLTQAMEDKTRGYGGQDIVLPDETRRAIAELVNGDARRALNTLEMMADMAEVDDSGKRVLKPELLTEIAGERSARFDNKGDRFYDLISALHKSVRGSAPDAALYWYARIITAGGDPLYVARRCLAIASEDVGNADPRAMQVAIAAWDCFTRVGPAEGERAIAQAIVYLACAPKSNAVYTAFKAALADARERPDYDVPVHLRNAPTKLMKEMGYGQEYRYAHDEANAYAAGEVYFPPEIAQTRYYFPTNRGLEGKIGEKLAWLAEQDQNEGHHHHHH | soluble
5 | WAIFVEQSDGHYRVRLRSKSHIINEIAKRHNGGGHPLASGANSYSLEENQAIYQ | soluble
6 | MAWPDLDPPRLAERPLSLQEALFVLEAPPEALPALAEAAIRVKEYFFGRRLKLVRLLNVKSGFCPEDCAYCAQSARSQAAIARYPLLSLEEILERAEEAQRLSARRFCLVAALRGPTPKVLERLGEAAQAIKARFPLELCASLGLLEEGMAEALKAAGFDYYNHNLNTVPSLYPRIATTHTYQDRLWTLKRAREAGLKLCSGVILGMGEGPKEVYEMALALRELGVESLPVNFLLPIPGTPLGDGRTVAGLTPERALKALILFRLLNPKAELRASAGRERYLGPYEPLAFRMVNSIFLQGYLTQPGSPWERDRALWESLDLDVEEGACG | soluble
7 | MSLCGIAGFFSRRPVNPAVPQAMLDELHRRGPDDASRLLLDSELNPADGGAIHNAMLHARLAIVDPRPVANQPMASDDGQVWICYNGEVYDWEIGKAELEAGGAVFRTHSDTEFILRGYQAWGIEGLLERLRGMFAFAILDKRCEKVHLARDRMGEKPLLYSLQDGDFAYGSLVRAVLPFLPADKRAFSPAAIDAYLAHRYIPSPATVFSHINRLENGYRLEFDLNTRQLTKQRYWQPKAESGDWLPELDRAVAMRTVADRPLGVLLSGGIDSTVIASRLAIQQLTQFSSFTAAFPGSTLDESGDAADSARRMGLPNVRVDMPENLAADFERIVADLDQPFADPSSFPTWYLAREVTKHVKVVLVGDGGDELLAGYKRMGKHLRTRWRQNIRLPLPIKPQLDSKRGKLATELAMDWKSAYSLRFSGFTPGQRSFLQGGRKLEKLCHWRAPDDIGPEPGDGSPGLHQLLELDFANYLPDYILQKSDLCTMAHGLEGRAPLLDHGFYQRLLSTSAAERYTRPAKLIFRRAIHPALPTDFFQRKKRGFNPPLSGWLKTSLAPRFDGLGSRLAEASGGQLDAGAVDAFARAYRDGAGHLAEQMLQLLILDESLTQLRRLCRELGEGHHHHHH | soluble
